These results are taken from the supplement of paper PMC7877785.

± gives the uncertainty stated by the source.

This series can be described thus: self-splicing fitness, log relative to wild type (ln ratio); higher = more splicing; Tetrahymena group I intron in knt gene, E. coli kanamycin selection, DiMSum; sequences stand for … in CUCUCU…GGAGGGAAAAGUUAUCAGGCAUGCACCUGGUAGCUAGUCUUUAAACCAAUAGAUUGCAUCGGUUUAAAAGGCAAGACCGUCAAAUUGCGGGAAAGGGGUCAACAGCCGUUCAGUACCAAGUCUCAGGGGAAACUUUGAGAUGGCCUUGCAAAGGGUAUGGUAAUAAGCUGACGGACAUGGUCCUAACCACGCAGCCAAGUCCUAAGUCAACAGAUCUUCUGUUGAUAUGGAUGCAGUUCACAGACUAAAUGUCGGUCGGGGAAGAUGUAUUCUUCUCAUAAGAUAUAGUCGGACCUCUCCUUAAUGGGAGCUAGCGGAUGAAGUGAUGCAACACUGGAGCCGCUGGGAACUAAUUUGUAUGCGAAAGUAUAUUGAUUAGUUUUGGAGUACUCGUGGUCG
Put shortly: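 Six replicate transformations of E. coli BL21(DE3) with a pET-22b(+) library were grown overnight at 37°C or 30°C. The library randomised all eight P1ex-region intron nucleotides, the intron lying in the knt kanamycin-resistance gene, and plates were LB agar with or without 25 μg/mL kanamycin plus 100 μg/mL carbenicillin, 50 μM IPTG and 0.2% rhamnose. Pooled colonies were amplicon-sequenced on an Illumina HiSeq 2500, and fitness is the DiMSum error-weighted combination of wild-type-normalised replicate fold changes, kanamycin versus none.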

For ACUGAGCAAUAUUACGUCAC, the “self-splicing fitness (ln)” value was -3.38 ± 0.17 (30 °C) and -2.75 ± 0.21 (37 °C).

Regarding ACUGAGCAAUAUUACGUCAG, the “self-splicing fitness (ln)” value (30 °C) was -2.94 ± 0.2 and the “self-splicing fitness (ln)” value (37 °C) is -2.21 ± 0.19.

With ACUGAGCAAUAUUACGUGUC, the “self-splicing fitness (ln)” value is -2.31 ± 0.25 (30 °C) and -2.62 ± 0.28 (37 °C).

Turning to ACUGAGCAAUAUUACGUGUG, the “self-splicing fitness (ln)” value reads like this: (30 °C) -2.22 ± 0.11; (37 °C) -2.13 ± 0.16.

As for ACUGAGCAAUAUUACGUGUU, the “self-splicing fitness (ln)” value was -4.1 ± 0.15 (30 °C) and -2.25 ± 0.11 (37 °C).

For ACUGAGCAAUAUUACGUUAU, the “self-splicing fitness (ln)” value is -3.12 ± 0.15 (30 °C) and -2.89 ± 0.2 (37 °C).

Take ACUUAGCAAUAUUACGAAAU: the “self-splicing fitness (ln)” value runs as follows: (30 °C) -3.03 ± 0.23; (37 °C) -1.23 ± 0.2.

Take ACUUAGCAAUAUUACGACCU: the “self-splicing fitness (ln)” value is -0.101 ± 0.16 (30 °C) and -0.219 ± 0.2 (37 °C).

Consider ACUUAGCAAUAUUACGACUU, for which the “self-splicing fitness (ln)” value (30 °C) is -0.0888 ± 0.085 and the “self-splicing fitness (ln)” value (37 °C) is -0.156 ± 0.1.

On to ACUUAGCAAUAUUACGAGGA, for which the “self-splicing fitness (ln)” value by setting is: (30 °C) -1.87 ± 0.16; (37 °C) -1.66 ± 0.23.

Turning to ACUUAGCAAUAUUACGAUGA, the “self-splicing fitness (ln)” value was -0.609 ± 0.094 (30 °C) and -1.2 ± 0.1 (37 °C).

Turning to ACUUAGCAAUAUUACGCCGA, the “self-splicing fitness (ln)” value by setting is: (30 °C) -2.94 ± 0.21; (37 °C) -1.35 ± 0.15.

For ACUUAGCAAUAUUACGCCGU, the “self-splicing fitness (ln)” value runs as follows: (30 °C) -2.28 ± 0.24; (37 °C) -1.11 ± 0.23.

Turning to ACUUAGCAAUAUUACGCGAC, the “self-splicing fitness (ln)” value is, setting by setting: (30 °C) -2.91 ± 0.13; (37 °C) -2.06 ± 0.17.

Consider ACUUAGCAAUAUUACGCUAG, for which the “self-splicing fitness (ln)” value was -2.35 ± 0.11 (30 °C) and -1.72 ± 0.12 (37 °C).

On to ACUUAGCAAUAUUACGGAAA, for which the “self-splicing fitness (ln)” value (30 °C) is -2.19 ± 0.27 and the “self-splicing fitness (ln)” value (37 °C) was -2.09 ± 0.26.

In the case of ACUUAGCAAUAUUACGGAAU, the “self-splicing fitness (ln)” value reads like this: (30 °C) -2.99 ± 0.17; (37 °C) -2.13 ± 0.2.

Turning to ACUUAGCAAUAUUACGGACG, the “self-splicing fitness (ln)” value (30 °C) was -1.59 ± 0.1 and the “self-splicing fitness (ln)” value (37 °C) is -0.553 ± 0.12.

In the case of ACUUAGCAAUAUUACGGCAC, the “self-splicing fitness (ln)” value was -1.79 ± 0.11 (30 °C) and -1.07 ± 0.14 (37 °C).

Consider ACUUAGCAAUAUUACGGCCC, for which the “self-splicing fitness (ln)” value runs as follows: (30 °C) -1.01 ± 0.34; (37 °C) -0.451 ± 0.29.

Regarding ACUUAGCAAUAUUACGGCGC, the “self-splicing fitness (ln)” value was -0.406 ± 0.11 (30 °C) and 0.119 ± 0.15 (37 °C).

As for ACUUAGCAAUAUUACGGCUG, the “self-splicing fitness (ln)” value runs as follows: (30 °C) -1.32 ± 0.062; (37 °C) -0.174 ± 0.082.

As to ACUUAGCAAUAUUACGGGAU, the “self-splicing fitness (ln)” value runs as follows: (30 °C) -2.08 ± 0.11; (37 °C) -0.352 ± 0.098.

As to ACUUAGCAAUAUUACGGGUU, the “self-splicing fitness (ln)” value is -3.42 ± 0.19 (30 °C) and -3.29 ± 0.3 (37 °C).

As for ACUUAGCAAUAUUACGUAAG, the “self-splicing fitness (ln)” value (30 °C) was -0.131 ± 0.081 and the “self-splicing fitness (ln)” value (37 °C) was -0.844 ± 0.1.

Take ACUUAGCAAUAUUACGUACA: the “self-splicing fitness (ln)” value is -1.84 ± 0.17 (30 °C) and -0.763 ± 0.15 (37 °C).

As for ACUUAGCAAUAUUACGUCUU, the “self-splicing fitness (ln)” value runs as follows: (30 °C) -0.647 ± 0.084; (37 °C) -4.56e-06 ± 0.099.

Turning to ACUUAGCAAUAUUACGUGGU, the “self-splicing fitness (ln)” value (30 °C) was -3.62 ± 0.21 and the “self-splicing fitness (ln)” value (37 °C) was -2.26 ± 0.17.

For ACUUAGCAAUAUUACGUUCC, the “self-splicing fitness (ln)” value was -2.16 ± 0.31 (30 °C) and -2.04 ± 0.44 (37 °C).

For AGAAAGCAAUAUUACGACGA, the “self-splicing fitness (ln)” value is -0.322 ± 0.13 (30 °C) and 0.0397 ± 0.12 (37 °C).

Turning to AGAAAGCAAUAUUACGAUUU, the “self-splicing fitness (ln)” value runs as follows: (30 °C) -0.00992 ± 0.078; (37 °C) 0.286 ± 0.11.

Take AGAAAGCAAUAUUACGCAGA: the “self-splicing fitness (ln)” value runs as follows: (30 °C) -2.03 ± 0.14; (37 °C) -1.72 ± 0.13.

Consider AGAAAGCAAUAUUACGCGGU, for which the “self-splicing fitness (ln)” value (30 °C) was -3.13 ± 0.17 and the “self-splicing fitness (ln)” value (37 °C) was -1.92 ± 0.21.

On to AGAAAGCAAUAUUACGCUGC, for which the “self-splicing fitness (ln)” value was -2.38 ± 0.2 (30 °C) and -1.52 ± 0.23 (37 °C).

For the sequence AGAAAGCAAUAUUACGCUUA, the “self-splicing fitness (ln)” value is, setting by setting: (30 °C) -1.63 ± 0.11; (37 °C) -0.632 ± 0.087.

For the sequence AGAAAGCAAUAUUACGGAAG, the “self-splicing fitness (ln)” value is, setting by setting: (30 °C) -2.64 ± 0.19; (37 °C) -1.71 ± 0.22.

With AGAAAGCAAUAUUACGGAGU, the “self-splicing fitness (ln)” value runs as follows: (30 °C) -2.55 ± 0.11; (37 °C) -1.11 ± 0.11.
